# Test results published in publication doi:10.1101/2022.02.05.479199.
# B1: Rtt105^Cy5 (natural protein)
# chain: MYSNHNLNSDDCSFDWNEEKAAELQRTGVSFDRSLTPQSLRTSTRRLSEENKQQSGTMHIDTSPSVVSDIISSRRDRSQDFFGPHSSSPIAPSERQRADQRSRLESMRLTRRRDKMTKVRGGLEKMEEMIMQGEHLREMQRLKQEAQKNALPSDMAEYMEWQNNEDLEDDELLAFIEKQETYKNELEHFLNNANKNVYENNSYPNSHT
# modifications: Cy5 (maleimide) on Cys-12
# B2: Regulator of Ty1 Transposition 105 (Rtt105) (natural protein)
# chain: MYSNHNLNSDDCCFDWNEEKAAELQRTGVSFDRSLTPQSLRTSTRRLSEENKQQSGTMHIDTSPSVVSDIISSRRDRSQDFFGPHSSSPIAPSERQRADQRSRLESMRLTRRRDKMTKVRGGLEKMEEMIMQGEHLREMQRLKQEAQKNALPSDMAEYMEWQNNEDLEDDELLAFIEKQETYKNELEHFLNNANKNVYENNSYPNSHT
# Legend:
# [1] = target: RPA-DBD-A^Cy3 (S. cerevisiae) (UniProt P22336); assay: FRET or BRET
# [2] = target: RPA-DBD-D^Cy3 (S. cerevisiae) (UniProt P22336); assay: FRET or BRET
# [3] = target: RPA-DBD-D^MB543 (S. cerevisiae) (UniProt P22336); assay: C-trap optical tweezers with confocal fluorescence
# [4] = target: F-A-B-DBD-A^MB543 (S. cerevisiae); assay: other fluorescence titration
# [5] = target: RPA-DBD-A^MB543 (S. cerevisiae) (UniProt P22336); assay: other fluorescence titration
Binder,kobs (single exponential model) [1] [s⁻¹],kobs (single-step model) [1] [s⁻¹],"kobs,1 (two-step model) [2] [s⁻¹]","kobs,2 (two-step model) [2] [s⁻¹]",t1/2 of dissociation [3] [s],Kd [4] [nM],Kd [5] [nM]
B1,0.62,0.2,3.5,0.2,5,,
B2,,,,,,33.9,61.1
